Laboratory results from article PMC6716676, “Chemokine signaling links cell-cycle progression and cilia formation for left–right symmetry breaking” (PLoS Biology, 2019).
Where a chain is given by its changes, count along the chain named. Names may count otherwise.

B1: Flag-zFoxj1a (zebrafish forkhead box j1a) (natural protein, UniProt F1QDF8 1-458, looked up)
chain: MLSMSSMDPWPEGSVGLEEEVVTAAAQAERLDTSTPLQCNTSLDSDNLDDSLTSLQWLQEFSILNASTGQHTSPSSHSHLMGSDAPSSPLAGDPASIGMPLTPGKPTAASFCRVPMFSALPSLVAHGHCPDEVDYKSNPHIKPPYSYATLICMAMQASKKTKITLSCIYKWITDNFCYFRHADPTWQNSIRHNLSLNKCFIKVPRQKDEPGKGGFWKIDPQYAERLLNGAYKKRRLPPVQINPALQHRLRMNAQATGVISRNLSVSPESQQLLKDFEEATSADQNWDPRLAEATMLSCWISGKGTNKRKQPYNHRTGKTPRRSSSPLLVMDEQEDLSSLRGNFDWDALLDSALNGELSLNEGSPLSPTPQDEELMIRGTHISPQEAPVENHVLMETQRSGDEDFDEETFLATAFLQSPWSEVDESNRSDFLGSSTVSIDQLFDLSFGGDLSSKIETLL
notes: forkhead box j1a (Foxj1a), zebrafish; In the self-association co-IP the second copy carried an HA tag instead of Flag (HA-zFoxj1a); also called Flag-tagged zFoxj1a; wild-type zFoxj1a; source: HEK293T, transfected, in lysate
B2: Flag-zFoxj1a-T102D (natural protein, zebrafish, UniProt F1QDF8 1-458, looked up)
chain: B1 chain with T102D
notes: forkhead box j1a (Foxj1a), zebrafish; In the self-association co-IP the second copy was differently tagged (HA); also called phospho-mimicking mutant of zFoxj1a; T102D mutant; source: HEK293T, transfected, in lysate

Tests used:
[1] = target: zFoxj1a (zebrafish Foxj1a) (UniProt F1QDF8); experiment: co-IP of Flag- and HA-tagged zFoxj1a; conditions: reference: wild type (both tagged copies); sites T102
[2] = target: the molecule itself; experiment: native gel or EMSA; whole-cell lysates of HEK293T cells with overexpressed Flag-tagged zFoxj1a or its mutants separated on SDS- and native PAGEs

Row | Molecule | binding against the reference [1] | stoichiometry N [2]
1 | zFoxj1a (zebrafish Foxj1a) (from UniProt F1QDF8) T102A (both tagged copies) | weaker | 
2 | B1 |  | 2
3 | B2 |  | 2
